# Measured values from patent US20150246947A1 (BAXALTA, published 2015).
# T1: human Protein S (UniProt P07225 42-676)
# T1 chain: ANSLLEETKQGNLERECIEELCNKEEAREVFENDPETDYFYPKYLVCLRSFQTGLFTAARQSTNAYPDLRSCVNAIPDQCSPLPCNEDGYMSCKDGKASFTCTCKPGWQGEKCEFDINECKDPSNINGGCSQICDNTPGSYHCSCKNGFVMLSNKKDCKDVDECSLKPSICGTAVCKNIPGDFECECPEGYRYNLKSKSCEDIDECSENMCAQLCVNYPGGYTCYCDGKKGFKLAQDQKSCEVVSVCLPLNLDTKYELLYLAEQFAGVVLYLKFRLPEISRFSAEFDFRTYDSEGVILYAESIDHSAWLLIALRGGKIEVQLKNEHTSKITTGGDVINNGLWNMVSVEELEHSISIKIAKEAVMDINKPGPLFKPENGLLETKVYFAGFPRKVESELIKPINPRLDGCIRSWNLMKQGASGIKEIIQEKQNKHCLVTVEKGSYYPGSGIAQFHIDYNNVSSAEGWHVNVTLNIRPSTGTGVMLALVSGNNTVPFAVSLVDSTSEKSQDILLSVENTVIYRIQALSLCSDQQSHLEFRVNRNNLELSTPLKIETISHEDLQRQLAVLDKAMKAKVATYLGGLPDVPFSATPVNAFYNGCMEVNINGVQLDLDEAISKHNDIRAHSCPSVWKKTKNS
# Target: T1, human Protein S
# Test: LANCE competition
# Summary of the method: (§1)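 IC50 was derived by non-linear regression of the acceptor emission in a LANCE time-resolved FRET competition assay using europium-labelled Protein S, ULight-labelled streptavidin, a biotinylated tracer peptide and three-fold titrations of unlabelled test peptide. Reactions of 50 µl contained 10 nM Protein S, 100 nM streptavidin and 300 nM tracer at final concentration (2 nM Protein S and 60 nM tracer on a Tecan F500), were kept 1 hour at room temperature, and were read at Ex 340 nm, Em 665 nm.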
row,IC50,Binder
1,12.8 nM,Ac-EEYVSAGWYDMNRDTYTEFY-NH2 [JBS3252]
2,3.7 nM,Ac-EYYVSAGWYDYNYDVYTEFE-NH2 [JBS3248]
3,0.9 nM,Ac-EYYVSAGWYDYNNDTYYEFE-NH2 [JBS3233]
4,4.7 nM,Ac-EYYVSAGWYDYNSDTYQEFI-NH2 [JBS3244]
5,1.1 nM,Ac-EYTVSAGWYDYNNDIYFEFY-NH2 [JBS3219]
6,1.5 nM,Ac-EYYVSAGWYDYNTDTYYEFD-NH2 [JBS3231]

# Target: T1, human Protein S
# Test: LANCE competition
# Remark: another data set of the same source
# Summary of the method: as §1
row,Binder,IC50
1,Ac-EVEVSAGWYEYNTDTYYEFW-NH2 [JBS3282],4.1 nM
2,Ac-FEYVSAGWYDYNTDTYYEFY-NH2 [JBS3271],1.9 nM
3,Ac-EYSVSAGWYDYNTDVYYEFE-NH2 [JBS3266],1.6 nM
4,Ac-EYIVEAGWYDINEDKYLEFY-NH2 [JBS3264],2 nM
5,Ac-FGIVSAGWYDYNTDTYYEPY-NH2 [JBS3269],56.9 nM
6,Ac-EFIVSAGWYDYNKDTYIEFE-NH2 [JBS3292],2.7 nM
7,Ac-EAMVSAGWYDYMNDTYYEFE-NH2 [JBS3293],2.1 nM
8,Ac-YGIVEAGWYEYNTDEYIEFW-NH2 [JBS3256],1.7 nM
9,Ac-YGIVSAGWYEYNTDIYEEFW-NH2 [JBS3257],14.8 nM
10,Ac-YNEVSAGWYDMNEDTYYEFY-NH2 [JBS3280],5.3 nM
11,Ac-AYIVEAGWYDYNTDTYEEFW-NH2 [JBS3305],3.7 nM
12,Ac-EGYVSAGWYDYNKDIYLEFE-NH2 [JBS3259],3.7 nM
13,Ac-EHIVSAGWYDYNMDEYYEFW-NH2 [JBS3294],6.3 nM
14,Ac-EYTASAGWYDYNSDTYYEFE-NH2 [JBS3255],9.5 nM
15,Ac-ITHVTAGWYDYNTDTYYEFI-NH2 [JBS3302],3.5 nM
16,Ac-KVEVSAGWYDYNKDVYYEFE-NH2 [JBS3299],2 nM
17,Ac-EYTISAGWYDYNTDMYYEFV-NH2 [JBS3254],1.6 nM
18,Ac-KDKVSAGWYDYNSDTYYEFT-NH2 [JBS3300],3.2 nM
19,Ac-ESYVSAGWYDYNIDAYYEFY-NH2 [JBS3261],2 nM
20,Ac-DVYVSAGWYDYNEDTYYEFS-NH2 [JBS3288],3.1 nM
21,Ac-EYTVSAGWYNYNADEYYEFE-NH2 [JBS3253],2.8 nM
22,Ac-EVEVSAGWYDYNDDKYYEFG-NH2 [JBS3276],3 nM
23,Ac-NMYVSAGWYNYNEDTYEEFY-NH2 [JBS3289],2.5 nM
24,Ac-VIEVSAGWYDYNEDKYYEFW-NH2 [JBS3303],1.7 nM
25,Ac-EYEVSAGWYDYNNDVYNEFY-NH2 [JBS3277],3.4 nM
26,Ac-EATVSIGWYDYNKDEYYEFY-NH2 [JBS3291],8 nM
27,Ac-NMEVSAGWYDYNSDTYHEFW-NH2 [JBS3290],3.4 nM
28,Ac-ESIVSAGWYDYNTDEYYEFF-NH2 [JBS3267],1.7 nM

# The remaining lines, values ahead:
row,IC50,Binder
1,0.5 nM,EYYVSAGWYDYNTDTYYEFEC [JBS3320]
2,1.4 nM,Ac-FEYVIAGWYDYNTDTYHEFN-NH2 [JBS3272]
3,1.4 nM,Ac-WYEVEIGWYDYNTDTYQEFY-NH2 [JBS3308]
4,1.5 nM,Ac-YNIVSAGWYDYNKDTYYEFF-NH2 [JBS3279]
5,1.3 nM,Ac-NYIVSAGWYDYNNDEYIEFY-NH2 [JBS3286]
6,1.4 nM,Ac-EYSVSAGWYDYYNDTYYEFY-NH2 [JBS3265]
7,1.5 nM,Ac-ESIVSAGWYDYNTDTYYEFT-NH2 [JBS3268]
8,1.1 nM,Ac-YVTVSAGWYDYNKDEYFEFY-NH2 [JBS3309]
9,1.2 nM,Ac-FGIISAGWYDYNEDAYSEFY-NH2 [JBS3270]
10,1.3 nM,Ac-IIMVSAGWYDYNTDTYYEFE-NH2 [JBS3301]
11,1.2 nM,Ac-RYIVSAGWYDIIQDTYFEFY-NH2 [JBS3285]
12,1.2 nM,Ac-EVHVSAGWYDYNNDTYYEFG-NH2 [JBS3275]
13,1.4 nM,Ac-HYNVSAGWYDYNNDEYFEFY-NH2 [JBS3307]
14,1.5 nM,Ac-VFYVSAGWYDYNDDKYYEFW-NH2 [JBS3304]
15,1 nM,Ac-ESYVSAGWYDYNTDTYYEFY-NH2 [JBS3262]
16,1.2 nM,Ac-EVYVSAGWYNYNEDAYYEFW-NH2 [JBS3287]
17,1.1 nM,Ac-EYFVSAGWYDYNADIYYEFD-NH2 [JBS3278]
18,1 nM,Ac-KMHVSIGWYDYNNDIYYEFY-NH2 [JBS3298]
